From paper PMC6242907, “Molecular basis of maintaining an oxidizing environment under anaerobiosis by soluble fumarate reductase” (Nature Communications, 2018)

Assays:
Assay in all cases: purified protein
Assay type in all cases: biochemical, Saccharomyces cerevisiae
[1] = substrate: Cc1cc2c(cc1C)N(C[C@H](O)[C@H](O)[C@H](O)CO)c1[nH]c(=O)[nH]c(=O)c1N2; conditions: printed as riboflavin, reduced in situ by excess sodium dithionite; fumarate as acceptor, anaerobic, PBS, 1 mM EDTA
[2] = substrate: Cc1cc2c(cc1C)N(C[C@H](O)[C@H](O)[C@H](O)COP(=O)(O)O)c1[nH]c(=O)[nH]c(=O)c1N2; conditions: printed as FMN, reduced in situ by excess sodium dithionite; fumarate as acceptor, anaerobic, PBS, 1 mM EDTA
[3] = substrate: Cc1cc2c(cc1C)N(C[C@H](O)[C@H](O)[C@H](O)COP(=O)(O)OP(=O)(O)OC[C@H]1O[C@@H](n3cnc4c(N)ncnc43)[C@H](O)[C@@H]1O)c1[nH]c(=O)[nH]c(=O)c1N2; conditions: printed as FAD, reduced in situ by excess sodium dithionite; fumarate as acceptor, anaerobic, PBS, 1 mM EDTA

B1: Osm1 (Saccharomyces cerevisiae S288C) (protein)
chain: SMKQPVVVIGSGLAGLTTSNRLISKYRIPVVLLDKAASIGGNSIKASSGINGAHTDTQQNLKVMDTPELFLKDTLHSAKGRGVPSLMDKLTKESKSAIRWLQTEFDLKLDLLAQLGGHSVPRTHRSSGKLPPGFEIVQALSKKLKDISSKDSNLVQIMLNSEVVDIELDNQGHVTGVVYMDENGNRKIMKSHHVVFCSGGFGYSKEMLKEYSPNLIHLPTTNGKQTTGDGQKILSKLGAELIDMDQVQVHPTGFIDPNDRENNWKFLAAEALRGLGGILLHPTTGRRFTNELSTRDTVTMEIQSKCPKNDNRALLVMSDKVYENYTNNINFYMSKNLIKKVSINDLIRQYDLQTTASELVTELKSYSDVNTKDTFDRPLIINAFDKDISTESTVYVGEVTPVVHFTMGGVKINEKSQVIKKNSESVLSNGIFAAGEVSGGVHGANRLGGSSLLECVVFGKTAADNIAKLY
notes: residues 32-501, N-terminal His6 tag and thrombin site in pET28a, E. coli BL21(DE3); tag removed by trypsin for crystals
In the case of B1, the Km [1] is reported as 9.3745 (±4.991) µM, the Km [2] is reported as 5.847 (±2.0065) µM and the Km [3] is reported as 2.858 µM.
